Data set [1] is described as follows: Isocratic point of PCCs (C18 prep-scale column elution). It is filed as physicochemical. The text has this:
The efficacy of AR-PCCs in vivo will not only depend on target binding, but also pharmacokinetic (PK) properties, of which clearance pathway is an important parameter. […] Modifications include single- and double-residue substitutions, residue removal, and the addition of non-ionic PEG and charged poly-arginine tags (Ri, where i represents the number of arginine). Results of this optimization are shown in FIG. 4B, which plots IP versus the affinity of the compound to MrkA, relative to cy(LLFFF) (SEQ ID NO:5).
PCC compounds were purified on a Waters Autopurification system, which isolated compounds based on MS peaks corresponding to protonated [M+1H]^+ and [M+2H]^2+, and/or sodium adducts [M+Na]^+ and [M+2Na]^2+. The isocratic points of PCCs were determined based on the elution of the compound from a C18 prep-scale column. Synthetic epitopes were either purified on the Waters Autopurification System, or by semi-preparative HPLC and then using matrix-assisted laser desorption/ionization mass spectroscopy to identify fractions with the desired m/z ratio. The resulting peptides were lyophilized, the yield determined by mass difference or UV-visible absorbance, and resuspended at a concentration of up to 10 mM peptide in DMSO. Peptides were stored at −80° C. before thawing for each use.

The target in data set [2] is T1, full-length recombinant MrkA protein (Klebsiella pneumoniae, UniProt P12267).
T1 construct: purchased MyBiosource MBS1248970
Briefly: Sandwich ELISA of PCC binding to full-length MrkA. As to the method: The screen yielded 26 hits (Table 2) that were sequenced, scaled up, and tested for binding to full-length recombinant MrkA in solution by single-point sandwich Enzyme-linked immunoassays (ELISAs) (FIG. 8). HPraGly is present before X1 in each peptide and Az4 follows X5 in each peptide.
An alanine scan was performed to establish which residues of cy(LLFFF) (SEQ ID NO:5) contribute most to MrkA binding. In this assay, a sandwich ELISA is used to quantify the affinity of several cy(LLFFF) (SEQ ID NO:5) analogues, in which one residue is substituted with an alanine, towards full-length MrkA protein. The ELISA results in FIG. 4 show lower signal for every alanine-substituted cy(LLFFF) (SEQ ID NO:5) analogue compared to unmodified cy(LLFFF) (SEQ ID NO:5), establishing that the native compound has the highest affinity. […] Thus, these two C-terminal phenylalanine residues (FIG. 3A, arrows in inset) play critical roles in MrkA binding, and are targets for modifications to improve binding. Another important detail of these alanine scan results is a strong dependence of MrkA binding on the residue position, independent of residue type. For example, cy(LLAFF) (SEQ ID NO:9) and cy(LLFFA) (SEQ ID NO:11) have very different binding affinities, despite having the same phenylalanine-to-alanine substitution.
In vitro ELISA assays. ELISA assays for MrkA-binding and epitope selectivity were performed on clear NeutrAvidin Coated High Capacity Plates (ThermoFisher, 15507). The buffer used for all washes and to dissolve all compounds was TBST+0.1% BSA (TBS+0.05% Tween 20+0.1% BSA, pH 7.3) and, unless otherwise stated, steps were conducted at room temperature. Each wash involved a brief 20 s agitation, and all conjugation, blocking, and incubation steps were performed with gentle agitation over the entire stated time period. The general procedure for an ELISA assay was: wash 3×200 μL/well, conjugate with 2 μM of biotinylated compound for 2 h at room temperature (100 μL/well), wash 3×200 μL/well, blocked overnight in 5 wt % milk at 4° C., wash […] with wash buffer, incubate with titrated compound (e.g., MrkA or epitope) for 1 h, […], incubate with primary antibody […] for 1 h (100 μL/well), wash 3×200 μL/well, incubate with 1:2,000 anti-rabbit secondary antibody-horseradish peroxidase conjugate (Cell signaling Technologies, 7074S) for 1 h, 3×200 μL/well, develop with the Microwell Peroxidase Substrate System (2-C) (SeraCare, 5120-0047) using 100 μL/well for 1-40 minutes, and quench using 1 M H2SO4 (aq.) at 100 μL/well. For MrkA binding assays, biotinylated PCCs were conjugated to the well surface, recombinant MrkA with an N-terminal 6×His-SUMO-tag (MyBiosource, MBS1248970) was titrated at the desired concentration, and the primary antibody was His-tag antibody, pAb, Rabbit (Genscript, A00174) at a 1:5,000 dilution. For epitope selectivity assays, biotinylated SynEps were conjugated, DNP-conjugated AR-PCCs were titrated at a desired concentration, and the primary antibody was anti-DNP antibody produced in Rabbit (Sigma-Aldrich, D9656) at a 1:8,000 dilution. […] For binding tests in the context of mouse sera, the “titrated compound” described in the steps above was dispersed in a solution containing the desired concentration of mouse serum.

The subject of data set [3] is K. pneumoniae cells (strain BAA 2146). The experiment in a line: Flow cytometry of AR-PCC-driven opsonization by anti-DNP antibodies. The conditions noted are these: cy(LLFFF)-DNP 1 or 5 μM, cy(HNGPT) control 50 μM, plus fluorescent anti-DNP. Type of data set: cell-based, Klebsiella pneumoniae.
The test system of data set [4] is K. pneumoniae cells (strain BAA 1705). Briefly: Gentamicin protection assay: phagocytosis and opsonophagocytic killing (OPK) by macrophages. Type of data set: cell-based, Klebsiella pneumoniae. The following applies: macrophages harvested at 6 hrs. The procedure: FIGS. 7A and 7B show a gentamicin protection assay that evaluates EPI-driven phagocytosis and opsonophagocytic killing (OPK) of K. pneumoniae cells by murine bone-marrow-derived macrophages. FIG. 7A is a flow diagram depicting the assay used to evaluate EPI-driven opsonophagocytic killing (OPK) of K. pneumoniae cells. Briefly, K. pneumoniae cells (strain BAA 1705) opsonized by EPIs (AR-PCCs) and anti-DNP antibodies were incubated with macrophages for 1 or 24 h. Macrophages were lysed, and the lysate was plated to obtain bacterial colonies that were subsequently counted. FIG. 7B is a plot of colony counts for various samples subjected to the OPK assay. […] All EPIs (AR-PCCs) were used at a 5 μM concentration, measurements were conducted in triplicate, and error bars reflect standard deviations. cy(LLFFA) is SEQ ID NO:11.
It also tested whether DNP-conjugated EPIs could promote the opsonophagocytic killing (OPK) of K. pneumoniae by macrophages. This was tested by using an OPK assay. Briefly, K. pneumoniae cells were treated with EPI and then anti-DNP antibody before being exposed to macrophages for either 6 or 24 hours. During this incubation period, macrophages that recognize K. pneumoniae cells will phagocytose them, and phagocytosed bacteria will remain viable for up to 6 hours, but within 24 hours are rendered inviable by OPK. Thus, macrophages were isolated after 6 and 24 hours of incubation with K. pneumoniae, lysed them, and plated and grew the lysate, which yielded bacterial colonies that reflect the phagocytosis (at 6 hrs) or OPK (at 24 hrs) of bacteria.
Given that cy(LLFFF)-DNP (SEQ ID NO:5) recruits antibodies to K. pneumoniae surfaces, it was expected that K. pneumoniae opsonized in this manner would be more susceptible to phagocytosis by macrophages. AR-PCC-driven phagocytosis and OPK were quantified by a gentamicin protection assay, as depicted in FIG. 7A. For this assay, K. pneumoniae cells (strain BAA 1705) were treated with cy(LLFFF)-DNP (SEQ ID NO:5), opsonized by anti-DNP antibodies, and then incubated with murine bone-marrow-derived macrophages (BMDMs). BMDMs were subsequently exposed to a solution containing gentamicin, to which K. pneumoniae strain BAA 1705 is susceptible, to kill any extracellular bacteria. Phagocytosed bacteria remain viable inside BMDMs for at least 1 h, yet are rendered inviable after 24 h by OPK (FIG. 13). Macrophages harvested at 1 h and 24 h were lysed and plated to generate bacterial colonies, which were enumerated to quantify phagocytosis and OPK.
Opsonophagocytic killing (OPK) assays. Klebsiella pneumoniae BAA1705 was treated with DNP-PCCs followed by incubation with anti-DNP antibody, as described above in the “Cell-Based ELISAs” section. These opsonized bacteria were then used to infect BMDMs at a multiplicity of infection of 50 for 0.5 h at 37° C. Bacteria were then washed by using RPMI 1640 Media and BMDMs were left in cell culture medium containing gentamicin (100 μg/ml). After 1 h and 24 h BMDMs were washed to remove gentamicin and intracellular bacteria were harvested by lysing BMDMs in RPMI media containing 0.2% Triton X 100. Bacterial CFUs were enumerated by plating onto LB agar. Bacterial counts at 1 h indicated the degree of opsonization while those at 24 h served as a measure of microbicidal activity of macrophages. For these measurements, anti-MrkA antibody and K. pneumoniae antiserum were used at dilutions of 5 μg/mL each.

Data set [5] has as its system MrkA-expressing K. pneumoniae cells. Briefly: Whole-cell ELISA of biotinylated PCC binding. The conditions noted are these: biotinylated PCC at 5 μM. In general terms: ELISA stands for enzyme-linked immunosorbent assay.
Data set [6] relates to live or heat-killed MRSA cells. The experiment in a line: ELISA of PCC-driven SAv-HRP recruitment to MRSA cells. The following applies: without or with 0.4 micrograms/mL tunicamycin. Type of data set: cell-based, Staphylococcus aureus. The procedure:
FIG. 16A-16B are graphs showing PCC-driven recruitment of streptavidin-horseradish peroxidase (SAv-HRP) conjugate to live MRSA cells (FIG. 16A) or heat-killed MRSA cells (FIG. 16B) cultured under different antibiotic conditions via enzyme-linked Immunosorbent Assays (ELISAs). All tests were conducted by coating the antigen (MRSA cells) onto the wells of 96-well plates and then exposing the wells solutions containing biotinylated PCCs, then SAv-HRP, then HRP substrate followed by detection via absorbance at 450 nm. Absorbance values greater than the “no PCC” background indicate that several PCCs recruit SAv-HRP to either live cells (FIG. 16A) or heat-killed cells (FIG. 16B) cultured either without antibiotic (“−tunicamycin”, first three bars in each set) or with 0.4 micrograms/mL of tunicamycin (“+tunicamycin”, last three bars in each set), which reduces the expression of wall teichoic aids by MRSA. All measurements were conducted in triplicate and error bars reflect standard deviations. […]
The recruitment ability of selected PCCs was assessed by PCC-driven recruitment of streptavidin-horseradish peroxidase (SAv-HRP) conjugate to live MRSA cells (FIG. 16A) or heat-killed MRSA cells (FIG. 16B) cultured under different antibiotic conditions via enzyme-linked Immunosorbent Assays (ELISAs). […]

Entries after “also recorded” stand apart in the source; their conditions may differ. Bridges are numbered along the chain shown (N, C = ends). Where no end group is shown, it is not given here. [ ]: non-standard residue; d: D form. Lys(N3) = [N-]=[N+]=NCCCC[C@H](N)C(=O)O; Pra = C#CC[C@H](N)C(=O)O

T1 sequence (P12267 23-202): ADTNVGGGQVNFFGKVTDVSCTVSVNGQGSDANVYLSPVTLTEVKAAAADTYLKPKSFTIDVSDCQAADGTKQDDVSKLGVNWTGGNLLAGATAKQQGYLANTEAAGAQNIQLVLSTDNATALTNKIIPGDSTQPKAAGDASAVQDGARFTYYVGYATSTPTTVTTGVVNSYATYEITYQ

Regarding “Ref. compound (LLFFF; not fully specified (bridges); printed as cy(LLFFF); also: cyclised (cy), ring-closing ends (Pra and azidolysine) not shown in this chain)”, the “Isocratic point (%)” value in data set [1] (N-terminal tag Bio-Peg10-peg10-) was found to be 74.53%; in data set [1] (N-terminal tag Bio-peg5-), 78.85%; in data set [1] (N-terminal tag Bio-peg10-), 75.88%. Besides, the “Relative affinity (ratio of ELISA signal versus cy(LLFFF))” value in data set [2] (ELISA 1, [MrkA] for ELISA N/A) came out at 1.00; in data set [2] ([MrkA] for ELISA 25 nM (ELISA 2, 5, 6)) it was 1.00; in data set [2] ([MrkA] for ELISA 50 nM (ELISA 3)), 1.00; in data set [2] ([MrkA] for ELISA 100 nM (ELISA 4)), 1.00.

As to “cy(HNGPT): non-MrkA-binding dummy ligand ([Lys(N3)]HNGPT[Pra]; triazole 1-7) [reference compound]”, in data set [3], the “fluorescence of cells (opsonization by anti-DNP)” value was “Slightly greater fluorescence”. In addition, in data set [4], the “CFU at 6 hrs, DNP-conjugated EPI and anti-DNP antibody” value is reported as “did not promote any phagocytosis”; the “cell counts at 6 hrs, DNP-conjugated EPI without antibody” value was ~35,000. Besides, the “whole-cell ELISA signal, K. pneumoniae BAA 1705 and BAA 2146” value in data set [5] is reported as “comparably lower signal; also recorded: no or minimal binding above baseline”.

For the substance cy(LLFFF)+R6, in data set [1], the “reduction / improvement in IP versus cy(LLFFF)” value is recorded as around 35%. In addition, the “isocratic point (IP)” value in data set [1] (elution from C18 prep-scale column) is on record as around 40%. Besides, in data set [2] (MrkA protein at 250 nM in 10 and 100% mouse sera), the “binding of MrkA protein in mouse sera” value was “binds MrkA protein in the context of sera; also recorded: bound MrkA protein in solutions of 10 and 100% mouse sera, albeit at lower levels versus 0% serum”. Also, the “stronger affinity to MrkA over cy(LLFFF)” value in data set [2] (ratio of ELISA signals to cy(LLFFF) reference on same plate) is reported as 22%. Besides, the “whole-cell ELISA signal, K. pneumoniae BAA 1705 and BAA 2146” value in data set [5] was “similarly high selectivity towards MrkA-expressing cells”.

“cy(akkrp) ([Lys(N3)][dA][dK][dK][dR][dP]X; bridge 1-7; not fully specified (residue 7, bridges); printed as cy(akkrp))”: in data set [6], the “SAv-HRP recruitment to MRSA cells” value is “Standout recruiting peptides”.

Regarding “cy(kpdew): PCC to MRSA peptidoglycan, D-amino acids ([Lys(N3)][dK][dP][dD][dE][dW]X; bridge 1-7; not fully specified (residue 7, bridges); printed as cy(kpdew))”, the “SAv-HRP recruitment to MRSA cells” value in data set [6] is listed as “Standout recruiting peptides”.

(Values after patent publication US12209142B2, “SARS-CoV-2 epitope-targeted peptide immunostimulants” (Institute for Systems Biology, priority 2020, dated 2025).)
